From patent US20210253718A1 (MODMAB THERAPEUTICS, published 2021) come the findings set out here.

Changes are numbered by the printed parent chain.

Test [1] concerns the target T1, FZD3 cysteine-rich domain (CRD), MYC-tagged and GPI-anchored on CHO cells (human, UniProt Q9NPG1 24-150, GPI anchor).
T1 construct: domain: cysteine-rich domain (CRD); also called FZD3 CRD; CHO-myc-FZDGPI; not shown: MYC tag and GPI anchor signal
T1 sequence (looked up): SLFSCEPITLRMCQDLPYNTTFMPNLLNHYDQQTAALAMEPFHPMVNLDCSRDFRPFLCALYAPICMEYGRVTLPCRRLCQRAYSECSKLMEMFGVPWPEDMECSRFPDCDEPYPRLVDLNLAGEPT
The experiment in a line: flow cytometry, CHO-CRD cells. (In general: A flow cytometer gives signals particle by particle.)

The target in test [2] is T2, FZD6 cysteine-rich domain (CRD), MYC-tagged and GPI-anchored on CHO cells (human, UniProt O60353 20-146, GPI anchor).
T2 construct: also called FZD6 CRD; CHO-myc-FZDGPI; not shown: MYC tag and GPI anchor signal
T2 sequence: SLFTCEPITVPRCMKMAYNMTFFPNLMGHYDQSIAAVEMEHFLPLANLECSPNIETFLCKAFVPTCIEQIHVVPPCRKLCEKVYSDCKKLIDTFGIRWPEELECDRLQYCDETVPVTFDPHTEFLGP
The experiment in a line: flow cytometry, CHO-CRD cells.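 Note: flow cytometry of Fab binding to CHO cells overexpressing a Frizzled CRD, with binding defined as median fluorescence over twice that of CHO cells lacking any Frizzled CRD.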

Test [3] concerns the target T3, FZD10 cysteine-rich domain (CRD), MYC-tagged and GPI-anchored on CHO cells (human, UniProt Q9ULW2 30-156, GPI anchor).
T3 construct: also called FZD10 CRD; CHO-myc-FZDGPI; not shown: MYC tag and GPI anchor signal
T3 sequence: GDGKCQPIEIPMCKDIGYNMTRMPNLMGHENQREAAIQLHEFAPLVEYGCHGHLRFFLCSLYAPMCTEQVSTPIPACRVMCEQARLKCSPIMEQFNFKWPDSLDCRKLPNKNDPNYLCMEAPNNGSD
Kind of test: flow cytometry, CHO-CRD cells.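 Note: flow cytometry of Fab binding to CHO cells overexpressing a Frizzled CRD, with binding defined as median fluorescence over twice that of CHO cells lacking any Frizzled CRD.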

In test [4] the target is T4, FZD2 cysteine-rich domain (CRD), MYC-tagged and GPI-anchored on CHO cells (human, UniProt Q14332 35-161). Kind of test: flow cytometry, CHO-CRD cells.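 Note: flow cytometry of Fab binding to CHO cells overexpressing a Frizzled CRD, with binding defined as median fluorescence over twice that of CHO cells lacking any Frizzled CRD.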
Procedure: (§1) Binding was measured via flow cytometry analysis of CHO cells overexpressing CRD of FZD1, FZD2, FZD3, FZD4, FZD5, FZD6, FZD7, FZD8, FZD9 or FZD10. Median fluorescence values are shown.
The target in test [5] is T5, FZD4 cysteine-rich domain (CRD), MYC-tagged and GPI-anchored on CHO cells (human, UniProt Q9ULV1 42-167, GPI anchor).
T5 construct: also called FZD4 CRD; CHO-myc-FZDGPI; not shown: MYC tag and GPI anchor signal
T5 sequence: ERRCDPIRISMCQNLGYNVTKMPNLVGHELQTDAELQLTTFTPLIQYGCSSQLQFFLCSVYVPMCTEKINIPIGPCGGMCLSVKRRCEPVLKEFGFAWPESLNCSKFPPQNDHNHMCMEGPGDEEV
Kind of test: flow cytometry, CHO-CRD cells.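 Note: flow cytometry of Fab binding to CHO cells overexpressing a Frizzled CRD, with binding defined as median fluorescence over twice that of CHO cells lacking any Frizzled CRD.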

Test [6] addresses T6, FZD9 cysteine-rich domain (CRD), MYC-tagged and GPI-anchored on CHO cells (human, UniProt O00144 35-161, GPI anchor).
T6 construct: also called FZD9 CRD; CHO-myc-FZDGPI; not shown: MYC tag and GPI anchor signal
T6 sequence: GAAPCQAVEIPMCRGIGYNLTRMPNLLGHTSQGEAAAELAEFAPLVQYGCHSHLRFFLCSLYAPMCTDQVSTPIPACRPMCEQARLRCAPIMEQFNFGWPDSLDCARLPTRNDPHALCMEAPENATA
The experiment in a line: flow cytometry, CHO-CRD cells.

For test [7], the target named is FZD7 cysteine-rich domain (CRD), MYC-tagged and GPI-anchored on CHO cells (human, UniProt O75084 45-169). The experiment in a line: flow cytometry, CHO-CRD cells.
Procedure: as §1
For test [8], the target named is T1, FZD3 cysteine-rich domain (CRD), …. The experiment in a line: immunofluorescence, CHO-CRD cells.
Test [9] deals with T2, FZD6 cysteine-rich domain (CRD), …. The experiment in a line: immunofluorescence, CHO-CRD cells.
Test [10] concerns the target T3, FZD10 cysteine-rich domain (CRD), …. The experiment in a line: immunofluorescence, CHO-CRD cells.
In test [11] the target is T4, FZD2 cysteine-rich domain (CRD), …. Kind of test: immunofluorescence, CHO-CRD cells.
Test [12] has as its target T5, FZD4 cysteine-rich domain (CRD), …. The experiment in a line: immunofluorescence, CHO-CRD cells.
Test [13] addresses T6, FZD9 cysteine-rich domain (CRD), …. Kind of test: immunofluorescence, CHO-CRD cells.
The target in test [14] is T7, FZD5 cysteine-rich domain (CRD), MYC-tagged and GPI-anchored on CHO cells (human, UniProt Q13467 29-156, GPI anchor).
T7 construct: also called FZD5 CRD; CHO-myc-FZDGPI; not shown: MYC tag and GPI anchor signal
T7 sequence: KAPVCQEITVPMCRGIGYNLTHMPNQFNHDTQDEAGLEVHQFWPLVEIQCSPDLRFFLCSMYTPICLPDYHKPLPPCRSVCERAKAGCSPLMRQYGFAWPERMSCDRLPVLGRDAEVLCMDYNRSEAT
Kind of test: flow cytometry, CHO-CRD cells.

Test [15] concerns the target T8, FZD8 cysteine-rich domain (CRD), MYC-tagged and GPI-anchored on CHO cells (human, UniProt Q498S8 31-155 (rat entry), GPI anchor).
T8 construct: also called FZD8 CRD; CHO-myc-FZDGPI; not shown: MYC tag and GPI anchor signal
T8 sequence: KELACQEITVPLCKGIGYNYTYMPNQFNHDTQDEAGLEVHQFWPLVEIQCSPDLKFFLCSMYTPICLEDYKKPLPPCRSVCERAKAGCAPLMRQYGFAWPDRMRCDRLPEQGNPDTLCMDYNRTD
Kind of test: flow cytometry, CHO-CRD cells.

In test [16] the target is T9, FZD1 cysteine-rich domain (CRD), MYC-tagged and GPI-anchored on CHO cells (human). Kind of test: flow cytometry, CHO-CRD cells.
Procedure: as §1
Test [17] concerns the target T9, FZD1 cysteine-rich domain (CRD), …. The experiment in a line: immunofluorescence, CHO-CRD cells.

B1: Fab-2917 (Fab, V domains shown)
VH: EVQLVESGGGLVQPGGSLRLSCAASGFNFSSSSIHWVRQAPGKGLEWVASISSSYGYTYYADSVKGRFTISADTSKNTAYLQMNSLRAEDTAVYYCARAVWYYWWVWGGFDYWGQGTLVTVSS
VL: DIQMTQSPSSLSASVGDRVTITCRASQSVSSAVAWYQQKPGKAPKLLIYSASSLYSGVPSRFSGSRSGTDFTLTISSLQPEDFATYYCQQSSYSLITFGQGTKVEIK
notes: Fab; also called Fv-2917
B1: the median fluorescence is 3.46 in test [1]; 2.89 in [2]; 2.76 in [3]; 5.57 in [4]; 4.14 in [5]; 3.49 in test [6]. Also, in [7], the median fluorescence worked out at 20.5. The binding result in test [8], in test [9], in [10], in test [11], in test [12] and in test [13] was “no binding” in each case.

B2: Fab-2910 (Fab, V domains shown)
VH: EVQLVESGGGLVQPGGSLRLSCAASGFNISYSYMHWVRQAPGKGLEWVASIYSSSSSTSYADSVKGRFTISADTSKNTAYLQMNSLRAEDTAVYYCARGAMDYWGQGTLVTVSS
VL: DIQMTQSPSSLSASVGDRVTITCRASQSVSSAVAWYQQKPGKAPKLLIYSASSLYSGVPSRFSGSRSGTDFTLTISSLQPEDFATYYCQQWYGSHLITFGQGTKVEIK
notes: Fab
Consider B2, for which the median fluorescence in [1] amounted to 3.28; in [14], 30.5; in [2] it was 2.79; in [3], 2.81; in test [4] it was 4.47; in test [5], 5. Also, the median fluorescence in test [15] was 7.91; in test [6], 2.74; in test [7], 10.2. For the same molecule, the binding result in [8], in test [9], in test [10], in [11], in test [12] and in test [13] was “no binding” throughout.

B3: Fab-2918 (Fab, V domains shown)
VH: EVQLVESGGGLVQPGGSLRLSCAASGFNLSYSSIHWVRQAPGKGLEWVASIYSSYSSTSYADSVKGRFTISADTSKNTAYLQMNSLRAEDTAVYYCARFGYWAIDYWGQGTLVTVSS
VL: B2 VL with W91A, Y92F, S94A, H95S, I97F
notes: Fab; also called Fv-2918
Consider B3, for which the median fluorescence in [1] came to 3.55; in [14], 29.2; in test [2] it was 2.69; in [3], 2.81; in test [4], 4.41; in test [5] it was 4.07. The median fluorescence in [15] came to 7.57; in test [6] it was 3.11; in [7] it was 7.5. Besides, the binding result in [8], in [9], in [10], in test [11], in [12] and in test [13] was “no binding” in each case.

B4: Fab-2906 (Fab, V domains shown)
VH: EVQLVESGGGLVQPGGSLRLSCAASGFNFSSSSIHWVRQAPGKGLEWVAYISSSYGYTYYADSVKGRFTISADTSKNTAYLQMNSLRAEDTAVYYCARTVRGSKKPYFSGWAMDYWGQGTLVTVSS
VL: B2 VL with Y92S, G93W, S94G, H95F
notes: Fab; also called Fv-2906
Regarding B4, the median fluorescence in test [1] stood at 4.03; in [14], 30.2; in test [2], 3.55; in test [3], 19.8; in test [4], 5.09; in test [15], 10.1. In addition, the median fluorescence in [6] is 5.05; in [7] it was 2.92; in test [16], 5.23. In addition, the binding result in test [8], in test [9], in [11], in test [13] and in test [17] was “no binding” in each case.

B5: Fab-2929 (Fab, V domains shown)
VH: B2 VH with S32Y, M34I, S53P
VL: DIQMTQSPSSLSASVGDRVTITCRASQSVSSAVAWYQQKPGKAPKLLIYSASSLYSGVPSRFSGSRSGTDFTLTISSLQPEDFATYYCQQWYSSYGLITFGQGTKVEIK
notes: Fab; also called Fv-2929
Turning to B5, the median fluorescence stood at 3.55 in test [1]; 27.1 in [14]; 2.84 in test [2]; 2.64 in test [3]; 4.29 in test [4]; 3.72 in test [5]. Also, the results for the median fluorescence in [15], in test [6] and in test [7] were 7.91, 3.08 and 13, respectively. For the same molecule, the binding result in test [8], in [9], in test [10], in test [11], in test [12] and in test [13] was “no binding” each time.
